The assay deals with T1, GST-DDRM1 (Arabidopsis thaliana, UniProt Q9ZW89 1-453).
T1 sequence (looked up): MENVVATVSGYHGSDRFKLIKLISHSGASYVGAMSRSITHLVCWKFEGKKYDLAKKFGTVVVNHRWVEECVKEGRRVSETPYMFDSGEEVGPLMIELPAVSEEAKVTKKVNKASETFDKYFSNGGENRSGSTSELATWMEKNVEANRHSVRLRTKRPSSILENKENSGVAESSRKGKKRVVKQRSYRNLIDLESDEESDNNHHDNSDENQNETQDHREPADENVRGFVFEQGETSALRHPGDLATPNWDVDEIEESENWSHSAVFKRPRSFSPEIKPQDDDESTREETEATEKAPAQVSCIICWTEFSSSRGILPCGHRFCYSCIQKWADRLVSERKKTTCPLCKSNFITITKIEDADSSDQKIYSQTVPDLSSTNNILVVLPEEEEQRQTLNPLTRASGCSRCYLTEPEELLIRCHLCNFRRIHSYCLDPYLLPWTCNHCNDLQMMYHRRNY
Kind of assay: pull-down.

B1: MBP-SOG1 (natural protein, Arabidopsis thaliana, UniProt Q6NQK2 1-449, looked up)
chain: MAGRSWLIDSNRIATKIMSASASSDPRQVVWKSNPSRHCPKCQHVIDNSDVVDDWPGLPRGVKFDPSDPEIIWHLLAKSGLSGLSSHPFIDEFIPTVNQDDGICYTHPKNLPGVKSDGTVSHFFHKAIKAYSTGTRKRRKIHDDDFGDVRWHKTGRTKPVVLDGVQRGCKKIMVLYGGKAVKTNWVMHQYHLGIEEDEKEGDYVVSKIFYQQPQQLVVKRGDKAEQEVSEDIFAAVTPTADPVTPKLATPEPRNAVRICSDSHIASDYVTPSDYVSAHEVSLAETSEVMCMEDEVQSIQPNHERPSSGPELEHGLENGAKEMLDDKEEQEKDRDNENQGEEDPTWFDSGSQFILNSQQLVEALSLCDDLLGSQDREENTNSGSLKDKQPCIADYAHLGPEDFKRDLEECQKIVLDPSNIELDTPPEFRLSQLEFGSQDSFLAWGTGKTD
On to B1, for which the binding result is listed as “binds”.

The record behind these values is article PMC9169791 (Proceedings of the National Academy of Sciences of the …, 2022).
